Test results taken from US20090036647A1, “BITORAN WHICH IS TRYPSIN-INHIBITOR-LIKE PROTEIN DERIVED FROM BITIS ARIETANS VENOM, AND USE THEREOF AS BLOOD COAGULATION FACTOR Xa INHIBITOR” (NEC SOFT, LTD., priority 2005, published 2009).

Columns and labels:
[1] = molecular target: T1, human blood coagulation factor Xa (Homo sapiens, UniProt P00742); assay: cell-based or functional assay
Target sequence in this assay (P00742 41-488 limits assumed): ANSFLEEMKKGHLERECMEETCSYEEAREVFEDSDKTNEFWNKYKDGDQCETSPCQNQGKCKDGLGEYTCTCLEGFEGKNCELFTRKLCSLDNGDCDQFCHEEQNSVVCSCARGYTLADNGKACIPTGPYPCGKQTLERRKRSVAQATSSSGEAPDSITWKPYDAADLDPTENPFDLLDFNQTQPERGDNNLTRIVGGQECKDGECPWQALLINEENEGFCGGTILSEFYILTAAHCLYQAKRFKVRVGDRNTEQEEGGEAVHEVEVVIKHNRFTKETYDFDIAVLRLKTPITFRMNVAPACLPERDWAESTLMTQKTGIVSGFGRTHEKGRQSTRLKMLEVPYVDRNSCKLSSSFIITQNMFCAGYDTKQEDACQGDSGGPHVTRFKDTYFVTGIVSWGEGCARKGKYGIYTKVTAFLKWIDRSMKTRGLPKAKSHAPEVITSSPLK

[2] = molecular target: T1, human blood coagulation factor Xa; assay: Inhibition of the serine protease activity of human blood coagulation factor Xa (chromogenic substrate LGR-pNA); assay type: biochemical; settings: 0.3 μM human factor Xa, 15 min at 37° C. preincubation, synthetic substrate LGR-pNA, Tris-HCl buffered saline pH8.0; from V/V0 curves of FIG. 4; read-out: 50% inhibition concentration (IC50) against serine protease activity of factor Xa
Procedure: Crude venom of Bitis arietans arietans purchased from LATOXAN was dissolved in Tris-HCl buffer (50 mM Tris-HCl pH 8.0) to prepare 2 mL of a crude venom solution (in concentration of 250 mg/mL). The crude venom solution was applied to Superdex 200 pg gel permeation column (φ2.6 cm×L 60 cm) equilibrated with the Tris-HCl buffer (50 mM Tris-HCl pH 8.0) at a flow rate of 2 mL/min. Two mL aliquots of the series of eluted fractions were collected, and each eluted fraction was determined for the presence of inhibitory activity against the serine protease activity of blood coagulation factor Xa. In the assay for inhibitory activity specific to the serine protease activity of blood coagulation factor Xa, a synthetic substrate Boc-leucyl-glycil-L-arginyl-p-nitroanilide hydrochloride was used to determine a concentration of a reaction product formed by truncation at the C-terminal side of an arginine residue by protease activity of blood coagulation factor Xa (Cproduct: concentration of p-nitroaniline), and then from a product concentration without addition of a test substance: Cproduct0 and a product concentration with addition of a test substance: Cproduct, an inhibitory rate was calculated as (Cproduct0−Cproduct)/Cproduct0. […]
Target sequence in this assay (P00742 235-488 limits assumed): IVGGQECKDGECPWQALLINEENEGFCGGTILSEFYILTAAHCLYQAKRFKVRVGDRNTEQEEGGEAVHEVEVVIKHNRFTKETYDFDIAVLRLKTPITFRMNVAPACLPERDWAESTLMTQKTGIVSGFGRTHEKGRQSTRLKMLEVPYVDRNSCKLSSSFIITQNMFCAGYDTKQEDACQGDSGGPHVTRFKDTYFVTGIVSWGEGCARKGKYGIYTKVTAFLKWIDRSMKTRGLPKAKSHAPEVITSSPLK
Target sequence in this assay (P00742 41-179 partner limits assumed): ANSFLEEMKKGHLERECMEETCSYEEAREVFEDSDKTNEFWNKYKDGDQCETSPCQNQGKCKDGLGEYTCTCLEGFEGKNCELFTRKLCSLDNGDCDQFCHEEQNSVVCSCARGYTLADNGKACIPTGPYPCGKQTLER

“SBTI (Soybean Trypsin Inhibitor; MW=20.1 kDa) (from UniProt P01070 25-205)” gave a 50% inhibition concentration (IC50) of factor Xa protease activity (V/V0), cleavage of synthetic substrate LGR-pNA [1] of 3e-07 M.

B1: bitoran V (protein)
chain: CRQNRPDFCYLPAVEGPCRAYIRSFFYNSTSNECEKFFYGGCYGNANKFETRDECRKTCVASA
Molecule B1 has an IC50 [2] of 20 nM.

B2: SBTI: Trypsin inhibitor substance from plant; Kunitz-type trypsin inhibitor from soybean, MW=20.1 kDa, positive control (protein, UniProt P01070 25-205, looked up)
Trypsin inhibitor A: DFVLDNEGNPLENGGTYYILSDITAFGGIRAAPTGNERCPLTVVQSRNELDKGIGTIISSPYRIRFIAEGHPLSLKFDSFAVIMLCVGIPTEWSVVEDLPEGPAVKIGENKDAMDGWFRLERVSDDEFNNYKLVFCPQQAEDDKCGDIGISIDHDDGTRRLVVSKNKPLVVQFQKLDKESL
For B2, the IC50 [2] was 300 nM.
